We go through five molecules from article doi:10.1101/2022.07.12.499507 (bioRxiv, 2022).

T1: Yng2 (Saccharomyces cerevisiae, UniProt P38806 1-282)
T1 sequence: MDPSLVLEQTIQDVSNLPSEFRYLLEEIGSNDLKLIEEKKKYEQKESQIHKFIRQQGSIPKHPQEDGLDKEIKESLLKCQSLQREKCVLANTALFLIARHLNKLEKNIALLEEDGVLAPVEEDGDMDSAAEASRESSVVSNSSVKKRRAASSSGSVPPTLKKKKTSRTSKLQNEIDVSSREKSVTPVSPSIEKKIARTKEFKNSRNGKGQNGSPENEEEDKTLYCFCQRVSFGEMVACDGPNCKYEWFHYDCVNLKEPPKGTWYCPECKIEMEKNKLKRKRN

T2: Eaf1 (Saccharomyces cerevisiae, UniProt Q06337 1-982)
T2 sequence: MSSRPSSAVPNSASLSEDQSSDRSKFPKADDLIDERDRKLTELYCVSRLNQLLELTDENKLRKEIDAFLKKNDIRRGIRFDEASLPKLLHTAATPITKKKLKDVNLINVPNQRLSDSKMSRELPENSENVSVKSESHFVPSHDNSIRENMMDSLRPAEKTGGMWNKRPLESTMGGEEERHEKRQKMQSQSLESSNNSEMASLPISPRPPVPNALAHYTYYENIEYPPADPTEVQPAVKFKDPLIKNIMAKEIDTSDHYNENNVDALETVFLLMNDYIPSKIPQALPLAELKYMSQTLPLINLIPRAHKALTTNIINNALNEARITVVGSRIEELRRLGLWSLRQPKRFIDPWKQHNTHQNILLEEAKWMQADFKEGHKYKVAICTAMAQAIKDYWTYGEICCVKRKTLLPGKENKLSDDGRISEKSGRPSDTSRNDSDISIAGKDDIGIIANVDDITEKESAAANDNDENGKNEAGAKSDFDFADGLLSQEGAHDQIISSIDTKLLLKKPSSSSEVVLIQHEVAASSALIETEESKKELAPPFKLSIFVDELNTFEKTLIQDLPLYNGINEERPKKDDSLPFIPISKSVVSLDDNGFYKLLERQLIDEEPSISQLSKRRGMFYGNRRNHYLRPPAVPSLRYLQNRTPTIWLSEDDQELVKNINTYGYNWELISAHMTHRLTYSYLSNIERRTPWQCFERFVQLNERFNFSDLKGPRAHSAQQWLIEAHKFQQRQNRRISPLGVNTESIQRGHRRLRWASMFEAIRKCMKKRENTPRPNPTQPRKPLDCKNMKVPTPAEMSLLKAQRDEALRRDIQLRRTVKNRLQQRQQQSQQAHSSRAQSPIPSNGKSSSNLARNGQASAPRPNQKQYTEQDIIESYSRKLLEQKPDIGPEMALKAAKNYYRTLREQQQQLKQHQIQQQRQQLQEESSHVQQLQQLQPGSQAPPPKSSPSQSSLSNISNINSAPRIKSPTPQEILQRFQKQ

B1: Eaf6 (natural protein)
chain: MTDELKSYEALKAELKKSLQDRREQEDTFDNLQQEIYDKETEYFSHNSNNNHSGHGGAHGSKSHYSGNIIKGFDTFSKSHHSHADSAFNNNDRIFSLSSATYVKQQHGQSQND
B2: Eaf3 (natural protein)
chain: MVDLEQEFALGGRCLAFHGPLMYEAKILKIWDPSSKMYTSIPNDKPGGSSQATKEIKPQKLGEDESIPEEIINGKCFFIHYQGWKSSWDEWVGYDRIRAYNEENIAMKKRLANEAKEAKKSLLEQQKKKKLSTSLGGPSNGGKRKGDSRSNASISKSTSQSFLTSSVSGRKSGRSSANSLHPGSSLRSSSDQNGNDDRRRSSSLSPNMLHHIAGYPTPKISLQIPIKLKSVLVDDWEYVTKDKKICRLPADVTVEMVLNKYEHEVSQELESPGSQSQLSEYCAGLKLYFDKCLGNMLLYRLERLQYDELLKKSSKDQKPLVPIRIYGAIHLLRLISVLPELISSTTMDLQSCQLLIKQTEDFLVWLLMHVDEYFNDKDPNRSDDALYVNTSSQYEGVALGM
B3: Yaf9 (natural protein)
chain: MAPTISKRIKTLSVSRPIIYGNTAKKMGSVKPPNAPAEHTHLWTIFVRGPQNEDISYFIKKVVFKLHDTYPNPVRSIEAPPFELTETGWGEFDINIKVYFVEEANEKVLNFYHRLRLHPYANPVPNSDNGNEQNTTDHNSKDAEVSSVYFDEIVFNEPNEEFFKILMSRPGNLLPSNKTDDCVYSKQLEQEEIDRIEIGIEKVDKEIDELKQKLENLVKQEAINGS
B4: Eaf2 (natural protein)
chain: MSSSDIFDVLNIKQKSRSPTNGQVSVPSSSAANRPKPQVTGMQRELFNLLGENQPPVVIKSGNNFKEKMLSTSKPSPWSFVEFKANNSVTLRHWVKGSKELIGDTPKESPYSKFNQHLSIPSFTKEEYEAFMNENEGTQKSVESEKNHNENFTNEKKDESKNSWSFEEIEYLFNLCKKYDLRWFLIFDRYSYNNSRTLEDLKEKFYYTCRNYFKASDPSNPLLSSLNFSAEKEIERKKYLQRLLSRSAAEIAEEEALVVESKKFEMAAKRTLAERESLLRLLDSPHSDQTITQYLTSQGMSQLYNALLADKTRKRKHDLNIPENPWMKQQQQFAQHRQLQQLNVKKSEVKENLSPKKTKRQRQEMQTALKRKSESAYAEQLLKDFNSDERKALGVITHGEKLSPGVYLRSTKLSTFKPALQNKILAILQELSLPSRPVMPSFDVMERQEELLKKINTLIDLKKHVDKYEAGMSITK
B5: Epl1 (natural protein)
chain: MPTPSNAIEINDGSHKSGRSTRRSGSRSAHDDGLDSFSKGDSGAGASAGSSNSRFRHRKISVKQHLKIYLPNDLKHLDKDELQQREVVEIETGVEKNEEKEVHLHRILQMGSGHTKHKDYIPTPDASMTWNEYDKFYTGSFQETTSYIKFSATVEDCCGTNYNMDERDETFLNEQVNKGSSDILTEDEFEILCSSFEHAIHERQPFLSMDPESILSFEELKPTLIKSDMADFNLRNQLNHEINSHKTHFITQFDPVSQMNTRPLIQLIEKFGSKIYDYWRERKIEVNGYEIFPQLKFERPGEKEEIDPYVCFRRREVRHPRKTRRIDILNSQRLRALHQELKNAKDLALLVAKRENVSLNWINDELKIFDQRVKIKNLKRSLNISGEDDDLINHKRKRPTIVTVEQREAELRKAELKRAAAAAAAAKAKNNKRNNQLEDKSSRLTKQQQQQLLQQQQQQQQNALKTENGKQLANASSSSTSQPITSHVYVKLPSSKIPDIVLEDVDALLNSKEKNARKFVQEKMEKRKIEDADVFFNLTDDPFNPVFDMSLPKNFSTSNVPFASIASSKFQIDRSFYSSHLPEYLKGISDDIRIYDSNGRSRNKDNYNLDTKRIKKTELYDPFQENLEIHSREYPIKFRKRVGRSNIKYVDRMPNFTTSSTKSACSLMDFVDFDSIEKEQYSREGSNDTDSINVYDSKYDEFVRLYDKWKYDSPQNEYGIKFSDEPARLNQISNDTQVIRFGTMLGTKSYEQLREATIKYRRDYITRLKQKHIQHLQQQQQQQQQQQQQAQQQKQKSQNNNSNSSNSLKKLNDSLINSEAKQNSSITQKNSS

Test [1] has as its target B5. Briefly: cryo-EM structure.
The target of the next test is T1, Yng2. Description: cryo-EM structure.
The target of test [2] is B5. Briefly: cross-linking.
For the test “Eaf2”, the target named is B4. Description: cross-linking.
Another test addresses T2, Eaf1. Briefly: cryo-EM structure.

Take B1: the binding result with Epl1 [1] and with Yng2 was “binds” each time.
For the molecule B2, the binding result with Epl1 [2] is given as “binds”.
For B3, in the test with Eaf2, the binding result is on record as “binds”.
As to B4, in the test with Eaf1, the binding result is listed as “binds”.
On the same count and under the same terms, to B5 belongs “binds”.
